Patent US6495376B1, “Methods and compositions for regulating protein-protein interactions” (Beth Israel Deaconess Medical Center, priority 1999, dated 2002)

Columns and labels:
WFYpSPFLE (Pintide) = experiment: Fluorescence anisotropy (polarization) binding to fluorescein-labeled phosphorylated Pintide analogue
Text: To determine the affinity of Pin1, and its WW or PPIase domain for phosphopeptides, peptides were labeled with fluorescein and their interactions with Pin1 measured using quantitative fluorescence anisotrophy. To prevent nonspecific labeling, a Pintide analogue (WFYpSPFLE) SEQ ID NO: 9 was used, which binds Pin1 with a high affinity based on the peptide library screen as described by (Lu, K. P. et al., U.S. Ser. No. 60/058,164 (1997), the teachings of which are incorporated herein in their entirety.
Pintide and its nonphosphorylated counterpart were synthesized and incubated with GST-Pin1 or the GST-WW-domain of Pin1 in a binding buffer, using established procedures (Shen, M. et al., Genes & Dev 12:706 (1998)). After a 1 hr incubation, mitotic HeLa cell extracts were added and subjected to GST pull down experiments, followed by immunoblotting analysis using the MPM-2 antibody. To obtain semi-quantitative data, films of immunoblots were scanned at the region of 55 kDa, the major Pin1-binding protein, and data analyzed using ImageQuan (ScanJet II CX). The peptide binding constants were measured using a fluorescence polarization assay (Jiskoot, W. et al., Anal Biochem 196:421 (1991)). Peptides were fluorescein labeled at the N-terminus using the Fluorescein Amine Labeling Kit (Pan Vera Corp.) and purified by TLC according to the manufacturer's […]. To prevent nonspecific labeling, a Pintide analogue (WFYpSPFLE) SEQ ID NO: 8 and the nonphosphorylated control were used. Various concentrations of Pin1 and its mutant proteins were incubated with 0.1 μM of the labeled peptides in a binding buffer containing 50 mM HEPES, pH 7.4, 100 mM NaCl, 2% glycerol. Fluorescence polarization values were obtained using a Pan Vera Beacon 2000 system, as described by the manufacturer.

[1] = test system: MPM-2 antigens (mitotic phosphoproteins) of mitotic HeLa cell extracts; experiment: GST pulldown from mitotic HeLa cell extracts, MPM-2 immunoblotting (phosphoprotein-binding activity)
Experimental: GST-fusion proteins containing the WW-domain, PPIase-domain or the entire Pin 1 protein were prepared and incubated with interphase (G1/S arrested; Control) or dividing (M phase) HeLa cell extracts using well-known procedures (Lu, K. P., et al., Nature 380:544 (1996); (Shen, M., et al., Genes & Devl. 12:706 (1998)). Briefly, HeLa cells were arrested at the G1/S boundary or mitosis by incubation with thymidine and aphidicolin or nocodazole for 16 h, respectively. The cells were lysed and supernatants incubated with 10 μl of agarose beads containing GST-Pin1; GST-WW-domain of Pin1; GST-PPIase domain of Pin1; or control GST for 2 h at 4° C. […]
Pintide and its nonphosphorylated counterpart were synthesized and incubated with GST-Pin1 or the GST-WW-domain of Pin1 in a binding buffer, using established procedures (Shen, M. et al., Genes & Dev 12:706 (1998)). […] To obtain semi-quantitative data, films of immunoblots were scanned at the region of 55 kDa, the major Pin1-binding protein, and data analyzed using ImageQuan (ScanJet II CX). The peptide binding constants were measured using a fluorescence polarization assay (Jiskoot, W. et al., Anal Biochem 196:421 (1991)). […] Fluorescence polarization values were obtained using a Pan Vera Beacon 2000 system, as described by the manufacturer. […]

peptide substrate = experiment: PPIase activity assay with peptide substrate; assay type: biochemical; settings: relative to wild-type protein defined as 100%
phosphorylated tau = experiment: GST-Pin1 pulldown of tau; assay type: binding; settings: tau phosphorylated by Cdc2 in vitro
Text: Pin1 binds and regulates the function of a defined subset of mitotic phosphoproteins by interacting with conserved phosphorylated Ser/Thr-Pro motifs that are also recognized by MPM-2, a mitosis-specific, phosphorylation-dependent monoclonal antibody (mAb) (Yaffe, M. B. et al., Science 278:1957-1960 (1997); Shen, M. et al., Genes Dev. 12:706-720 (1 998)). Tau is an MPM-2 antigen phosphorylated on multiple Ser/Thr-Pro motifs during mitosis (Illenberger, S. et al., Mol Biol Cell 9:1495-1512 (1998)). Experiments were undertaken to determine whether Pin1 binds tau. Tau isoform was either synthesized by in vitro transcription and translation in the presence of ^35S-Met or produced in bacteria as an N-terminal His-tagged protein, followed by purification using NTA-Ni columns (Yaffe, M. B. et al., Science 278:1957-1960 (1997); Shen, M. et al., Genes Dev. 12:706-720 (1998)). To generate interphase- and mitosis-specific phosphorylated form of tau, tau was incubated with Xenopus interphase and mitotic extracts, respectively (Shen, M. et al., Genes Dev. 12:706-720 (1998)). […]
To determine whether Pin1 interacts with pT231-tau, GST-Pin1 beads were used to isolate tau from AD brain extracts or PHFs and T231 phosphorylation detected using CP9. […]

WFYSPFLE = experiment: Fluorescence anisotropy binding to fluorescein-labeled nonphosphorylated control peptide; settings: nonphosphorylated peptide

Chain of phosphorylated tau (P10636 45-216 isoform P10636-2 limits assumed): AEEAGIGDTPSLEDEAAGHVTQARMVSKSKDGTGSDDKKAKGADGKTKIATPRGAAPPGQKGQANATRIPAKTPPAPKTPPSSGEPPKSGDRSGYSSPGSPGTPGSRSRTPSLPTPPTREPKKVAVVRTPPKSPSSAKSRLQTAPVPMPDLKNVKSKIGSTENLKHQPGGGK

B1: PPlase Domain: C-terminal PPIase domain (amino acids 47-163) of Pin1 (protein)
chain: NGQGEPARVRCSHLLVKHSQSRRPSSWRQEKITRTKEEALELINGYIQKIKSGEEDFESLASQFSDCSSAKARGDLGAFSRGQMQKPFEDASFALRTGEMSGPVFTDSGIHIILRTE
fold lower affinity for the phosphopeptide than the WW-domain (WFYpSPFLE (Pintide)): about 10 fold
binding to Pintide (in words) (WFYpSPFLE (Pintide); fluorescence anisotropy): No binding was detected
Kd (WFYpSPFLE (Pintide); low affinity binding site, read-out: WFYpSPFLE Kd(μM) Low affinity): 15 µM
Phosphoprotein binding activity ([1]; GST-fusion proteins with mitotic extracts, MPM2 antibody): −
binding to mitotic phosphoproteins / MPM-2 antigens (in words) ([1]; mitotic HeLa cell extracts): no specific binding
PPlase Activity (%) (peptide substrate): 90%
binding to Cdc2 phosphorylated tau (phosphorylated tau): not
WFYSPFLE Kd (WFYSPFLE): Not binding
WFYSPFLE Kd (WFYSPFLE; listed as PPIase domain): No binding was detected
